Test results from the DeepSol protein solubility set.

Assay: soluble on expression in E. coli; label from the status in PepcDB or PDB records

| Sequence | soluble on expression in E. coli |
| --- | --- |
| MTHIAFGHYLHSKRWYTVQVLSKSEDAMSTQLDPTQLAIEFLRRDQSNLSPAQYLKRLKQLELEFADLLTLSSAELKEEIYFAWRLGVH | not soluble |
| MTIADCDPQISFEKEVYFPGDEVKGRAWVSTTKNLKATSVEITFSGKTITAHNGKKIIKDKKCKKGEETYVEMKHEVWTPEDTENTFPSGDYEWNFSFELPKDCPPSFEGKYGFIRYSVLLHIAVPNGKPINVERAVTVSSMVDLNAVNAHEPAKIHVDNVAEYCHCLPCLPTRGNVIYTLQSPKCGYVAGENVIVSGQIENGTSKPMKIITAKLTRRITYREELKAKANAKKKADGADGFKSKLEEQILETKIERCNVPARSSKDFAFSFDIPAVVSTIRSSRLLAVEYFVTVWGDTGTCNRGGVAALNIIVGNVPLFLGSSSLPPRKFVDGEDAQSWTVDMKPVFTYQVPYYGH | not soluble |
| MTIEEIARIVEGEILCGNKDLNIERAVATDLMSDVLAFAEPNVLLITGLHSPQAVRTAMVVGIPAVLFVRKRDIPETIVNFAKECNITVLATNLSMFETCGRLYMNGLKPVRRAIE | not soluble |
| MTILPVKKKREKDSQQRSVSTIGSSAENSRQQLSGPSCSSSASSSSSAAKRIRSQEDGPPSKRWVLSASSTSSTNKSPIPSSSPVLPPPQPEIEPNRSQSPGNADYNSDDEYEMQNIRDDEIETEFSNRLAARGLIIKEMVGDGACMFRSIAEQIYGDQEMHGQIRRLCMDYMSNNRDHFKEFITENFENYIQRKREENVHGNHVELQAISEIKKKSNYILKNSLHSINSEPINVLLPRPEPEATALTDGSASTSNAAPPPSTVPIQQNPPLRLSYHRAVHYNAILAPNIPTIGIGLGLPGMIPGSADKELMSTAMKTSELEHIEETMLQDKIDMTDFQRTQADIEDQITRESLISYLNDFEKSKNAPSTSAGAPGPSNFSGEPPVSGSGLYEEMLAAQSLEWDAYTDDVAIAEAMLVSQQDYMSNKPSTSSSGSGPSTSE | not soluble |
| MTISGISSDQPFIETIDTLMLGGFPVLSTTPSAFVASLYRSLIEERQQRVFFANTNFIVQCQSLRGRMYSERVCILNDGIGMDLAALFIHGRRFVSNLNGTDLIPYLCQHAPRPLRFFLLGAKPGVADMAAQMLCQLGQLVVGTCDGYAQFVATGEDLVESINASGADVLLVALGNPVQERWILDHDVQLRTPLVFGVGALFDFMSGNVRRAPLWVRRVRGEWLYRLLLEPRRLLKRYSWDLLRFFGVCLLRRREGD | not soluble |
| MTIWLVTRHPGAIEWVARQGIQWDKHAAHLDPCEITAGDTVIGSLPINLAAEICNRGARYFNLSLNLPAHLRGRELDAATLTACEARLEEYIVKKVNS | not soluble |
| MTIYQHLLILWSSLFASTFAGTAEEVAKHLELGSQFLARAQFADALTQYHAAIELDPKSYQAIYRRATTYLAMGRGKAAIVDLERVLELKPDFYGARIQRGNILLKQGELEAAEADFNIVLNHDSSNNDVQEKTALIEQHRQLRHQIKSAYAGGDCATVEEYINHIIEIQVWDASLYRMRAKCLEERGELKKAIHDMRIVSKLSTDSTDTMFETSKLLYTVGDLEESLNVIRECLKLNPDHKSCYPFYKKLRKVVKSLESMKKKVENSDWMACLEEGQKTMKFDPTPSVQLNVFRITNRCQREAGHISEAIAECNEILNDDPSDADILCERAEAHILDEDYDSAIEDYQKATEVNPDHREAKEGLEHAKRLKTQAGKRDYYKILGVKRNASKREITKAYRKLAQKWHPDNFSDEEEKKKAEKKFIDIAAAKEVLQDEEKRRQFDQGVDPLDPEAQRQGGGHHGGFGHGFPHGFHHFGGGGGGEHSFKFNWG | not soluble |
| MTKCPKCKKIMLTKELDKNMRVCMNCDYHFPMNAKQRIESLMDEQSFEEFNQGMLSENPLGFPGYLEKLEKDREKTSLNEAVVTGKGTIGGHPAVVAVMDSSFRMGSMGSVVGEKITLAIEKAKADKVPFIIFTASGGARMQEGVLSLMQMAKTSSALKLFSEEQGLIISVMTHPTTGGVSASFASLGDYNFAEPGALIGFAGRRIIEQTIGEKLPEDFQTAEFLLKHGQLDAVIHRDDMKKTLENLLDMHQTGGDIEWLQDLEHHHHHH | not soluble |
| MTKKHREGLSLRAFAKKMRVSPNAVVSRFKTGKFDQALFEDGSVNEALATAIWNENPTKRPAPFLAPDGQPRTKIKQVSTEGANEYEIKLERMQVALESEKIALERLRETTVDREEVKRAAREFGRAHRDAMLNFPHRFGASIAAQVGCDAASLIGAIDYYIRKALLEAVHIPVPFHDPHSPELENLQETNNG | not soluble |
| MTKKRVALIFGGNSSEHDVSKRSAQNFYNAIEATGKYEIIVFAIAQNGFFLDTESSKKILALEDEQPIVDAFMKTVDASDPLARIHALKSAGDFDIFFPVVHGNLGEDGTLQGLFKLLDKPYVGAPLRGHAVSFDKALTKELLTVNGIRNTKYIVVDPESANNWSWDKIVAELGNIVFVKAANQGSSVGISRVTNAEEYTEALSDSFQYDYKVLIEEAVNGARELEVGVIGNDQPLVSEIGAHTVPNQGSGDGWYDYNNKFVDNSAVHFQIPAQLSPEVTKEVKQMALDAYKVLNLRGEARMDFLLDENNVPYLGEPNTLPGFTNMSLFKRLWDYSDINNAKLVDMLIDYGFEDFAQNKKLSYSFVSLGEEKIGKFN | soluble |
| MTKLALFVRLEAKPGQEAALADFLASALPLANAESGTTAWFALKFGPSTFGVFDAFADEAGRQAHLNGQIAAALMANAATLLSSPPNIEKVELLAAKLPA | soluble |
| MTKYIFVTGGVVSSLGKGITAASLGRLLKNRGLNVTIQKFDPYINVDPGTMSPYQHGEVFVTDDGAETDLDLGHYERFIDINLNKYSNVTTGKIYSSVLQKERRGEYLGGTVQVIPHITNEIKERVYRSGRETNADVVITEIGGTVGDIESLPFLEAIRQIKSDIGRDNVMYIHCTLIPYLKAAGEMKTKPTQHSVKELRSLGIQPNIIVVRTEMPVSQDMKDKLALFCDIDTKAVIEARDADTLYAVPLSLQEQNMDQIVCDHLKLDNPAADMTEWTALVEKVRNLSKKTKIALVGKYVELQDAYISVVEALRHAGYSFDTDVEVKWVNAEHVTAENVQELVGDTDGILVPGGFGDRGVEGKIVAIQYARENKVPFLGICLGMQLASIEFARNVLGLEGANSSEINPDTPYAIIDLLPEQKDVEDLGGTLRLGLYPCKLSEETNAYNAYNEPVVYERHRHRYEFNNQFRPDMEKAGFVFSGTSPDGRLVEIIELKDHPWFVAAQFHPELVSRPNRPQPLFHDFVKASLTNKESK | not soluble |
| MTLIDCCDPQKPSRVLFHFLILDAPSPSNLPTYIKELQHRGVRHLVRVCGPTYDATLVKSRGIDVHSWPFDDGAPPTRAVLDSWLKLLDTELARQQEDPSVPPPTIGVHCVAGLGRAPILVALALVEYGNVSALDAIALIREKRKGAINQTQMHWITKYKR | not soluble |
| MTLIPPVQAIAGTSAAATQALSPVATPNQALVNRFQALMQSSSPLPPAMQRVGNPSMMSRVVDVQNDGVRTIAEHIDAFSMQAPTMGLQEMAAQQIKLMHELTMVGFNLNVSVGVAQSGKNAVQTLVKNQ | not soluble |
| MTLNAFIEKLSTQPELIEFTETMAVIESHYEFTPTEFANGNTVNLADQNNGSCKIFAFALLNQLSVDQTLACFGQYYRQDVLENPQGDDHQNIRNFMVTGWAGVQFKAQALQAK | not soluble |
| MTLNDKYPFTDEDQAIINSYKAVVDGVSALIGEHCEIVLHSLENIEHSAICIANGHNTNRQVGSPITDLALRSLRNMQSESVSKPYFTRAKGSVLMKSVTIAIRNKTQRIIGLLCININLDVPVSQFLQCFMLTEHTNETSSVNFANSVEDLVAQTIEKTIEEVNADRAVANNTKNRQIVLSLYEKGIFDIKDAINLVAERLDISRHTVYLYIRQIKQEQE | not soluble |
| MTLNITSKQMDITPAIREHLEERLAKLGKWQTQLISPHFVLNKVPNGFSVEASIGTPLGNLLASATSDDMYKAINEVEEKLERQLNKLQHKSESRRADERLKDSFEN | soluble |
| MTLNSLPLLRMGTVPLASRISTPLSLRLVSLSLERIRCAGTLRAPFPLPLYFSPGEQPLLHMALPLAARQHFLEHGYAIVPNVLSSSVVERIRSAALASTTARFRSFAHLPNVHSLLKSTPKCTDPLQDGLMSHLQKRRYILRYYRDMRRHKRRLRRAAKAFLNGRDVSELGREDMLRLSEMVCAEAQKVWSRGCTSTVKTDLQMLTAINQYRANAWMTNAQLEAVLRDNEEFVKPLSQLAEVVGGVARPVIFGDVPLLREAYGNPVGYHCLAPTIGTRTNARVSKGGGEATAVSMVLFTYTPTPLCLPPFVLRNSQHAVRRQYLHSVHAERLWRPFAPMEADIRDQLRRFQFDASVVGQPLLAAMAGPSSTPAAPVIGPGTVMVVDPHLMMAFGGNMTPQSEVLYRINVVAENARPHLMAPSWIRGWRTMPEEVHFASPVVFPPLYVE | not soluble |
| MTMDFQITRRYPCSYLPGELARSRIVVTDDTLSDSNTYAQLIQQGYRRSGSLIYRPDCDYCHACIPVRIPVELFDPNRTQRRIWKRHQHLQIAWHPLHFDPVHFDLYQRYQKSRHTNGSMDQDDENGRKQYRDFLLKSTVDSFLVTFHENEQLRMVSIIDRLPDGLSPVYTFFEPDVPGSSYGTFNILWQTAQCRADRLPYLYLGYWIANSRKMHYKANFQPLQYLIDNQWQYRTTNRLEHHHHHH | not soluble |
| MTMLLSIIVPTFKPQKTYFEECLFSLFNQTMFHYLYEVIVVLNGDIDTQYTDMILDIFAYKPAGLYCRLIKTDQAGVSNARNLGIDAAKGQYIGFVDDDDIVSSDYLEELCKISSRNIVGVSNVHTFRKTIEEKEDNFFACRIIQQRECQYSLFRNRAILAFPVAKLIHRDIIGNRRFNPRFKNGEDALFMTEISDLIGGFRFTKEYTTYYVRERAGSASRRPLKRGQLCWDTFMLIKAYVSIYLSSPFSYNFLLFASRIPGSIKGAIKLSRNTAFFLEHHHHHH | not soluble |
| MTMRTYKNPYPDSEDAVEIRFDHCREDIAKAAQEYWREMTEAELDDLQEEIMRALAVSEWQNIWLTSAAFITVLAYHFHD | not soluble |
| MTNEAIQNREPFLQNLREKLDVEKQPVSAHPFEPVNHLPEEQLADKTPAELLTIVKERVETIHTNLVETTQENLLTTIQQIVAEFGGDNLLLPTDARFEAYGLADLAKSLEAVSVKQWQPGSEQREANIQTAAQANIAIAFAEFLLAESGTIVVESNAGQGRALHFLPKHYISIIPFSKLVPRSTQPAAFYTEKIEKGEKIGSAIHFISGPSNSGDIEMQLVVGLHGPLEVCYVVVMDR | not soluble |
| MTNQKQTTHFGFKSVDWNEKEKKVAEVFHSVAKNYDRMNDLMSLGIHHLWKRYTIELSHVRPGQSVLDLAGGSGDLTRLLLQKVGDSGQVILADINAAMLHVGRDRLLDEGLFKNIRYVQGNAQCLPFADNSFHCITMGFGLRNVTDKDEALQSMYRVCKPGGKLMVLEFSTPVFPGLKPVYDWYSFNILPKIGKFVANDEASYQYLAESIRMHPDQETLKAMIERVGFEDCHYHNLSGGIVALHIAYKYLEHHHHHH | not soluble |
| MTNSNDIDETAATIDTARALLKSFGFEAQRHNVRSAVTLLALAGLKPGDHWADSTTPRLGVQKIMDWSGAYWAKPYATGSREDFRKKTLRQWVDNGFAVLNPDNLNIATNSQLNEYCLSDEAAQAIRSYGTDAFESALVDFLSKASDTVRARAEALRAAMISVDLADGDEFLLSPAGQNPLLKKMVEEFMPRFAPGAKVLYIGDTRGKHTRFEKRIFEETLGLTFDPHGRMPDLVLHDKVRKWLFLMEAVKSKGPFDEERHRTLRELFATPVAGLVFVNCFENREAMRQWLPELAWETEAWVADDPDHLIHLNGSRFLGPYER | soluble |
